Results on two molecules are retold here after US20240167007A1 (RHEINISCHE FRIEDRICH WILHELMS UNIVERSIT T BONN, published 2024).

Series [1] has as its target mannose 6-phosphate (M6P) receptor (MPR300) on human hepatoma cells (HuH7) (human), P11717. In words: cell-based or functional assay.
Series [2] deals with the molecule itself. In words: size exclusion chromatography (Superdex 200), pH 7.0; self-association. The method, then:
The indicated hASA-variants were separated by size exclusion chromatography using a Superdex 200 column (Amersham Pharmacia) linked to an Äkta FPLC system (GE Healthcare). The buffer was 150 mM NaCl, 20 mM Bis-Tris, pH 7.0. Fractions (0.5 ml) were collected and analysed on ASA activity using p-nitrocatechol sulfate as a substrate. Elution profiles of the four indicated hASA-variants are superimposed. While wildtype hASA presents as a dimer at neutral pH, E424A-mutants form octamers.
On the technique in general: In gel filtration, larger molecules generally elute earlier.

Sequence of mannose 6-phosphate (M6P) receptor (MPR300) on human hepatoma cells (HuH7) (human), P11717 (P11717 41-2491): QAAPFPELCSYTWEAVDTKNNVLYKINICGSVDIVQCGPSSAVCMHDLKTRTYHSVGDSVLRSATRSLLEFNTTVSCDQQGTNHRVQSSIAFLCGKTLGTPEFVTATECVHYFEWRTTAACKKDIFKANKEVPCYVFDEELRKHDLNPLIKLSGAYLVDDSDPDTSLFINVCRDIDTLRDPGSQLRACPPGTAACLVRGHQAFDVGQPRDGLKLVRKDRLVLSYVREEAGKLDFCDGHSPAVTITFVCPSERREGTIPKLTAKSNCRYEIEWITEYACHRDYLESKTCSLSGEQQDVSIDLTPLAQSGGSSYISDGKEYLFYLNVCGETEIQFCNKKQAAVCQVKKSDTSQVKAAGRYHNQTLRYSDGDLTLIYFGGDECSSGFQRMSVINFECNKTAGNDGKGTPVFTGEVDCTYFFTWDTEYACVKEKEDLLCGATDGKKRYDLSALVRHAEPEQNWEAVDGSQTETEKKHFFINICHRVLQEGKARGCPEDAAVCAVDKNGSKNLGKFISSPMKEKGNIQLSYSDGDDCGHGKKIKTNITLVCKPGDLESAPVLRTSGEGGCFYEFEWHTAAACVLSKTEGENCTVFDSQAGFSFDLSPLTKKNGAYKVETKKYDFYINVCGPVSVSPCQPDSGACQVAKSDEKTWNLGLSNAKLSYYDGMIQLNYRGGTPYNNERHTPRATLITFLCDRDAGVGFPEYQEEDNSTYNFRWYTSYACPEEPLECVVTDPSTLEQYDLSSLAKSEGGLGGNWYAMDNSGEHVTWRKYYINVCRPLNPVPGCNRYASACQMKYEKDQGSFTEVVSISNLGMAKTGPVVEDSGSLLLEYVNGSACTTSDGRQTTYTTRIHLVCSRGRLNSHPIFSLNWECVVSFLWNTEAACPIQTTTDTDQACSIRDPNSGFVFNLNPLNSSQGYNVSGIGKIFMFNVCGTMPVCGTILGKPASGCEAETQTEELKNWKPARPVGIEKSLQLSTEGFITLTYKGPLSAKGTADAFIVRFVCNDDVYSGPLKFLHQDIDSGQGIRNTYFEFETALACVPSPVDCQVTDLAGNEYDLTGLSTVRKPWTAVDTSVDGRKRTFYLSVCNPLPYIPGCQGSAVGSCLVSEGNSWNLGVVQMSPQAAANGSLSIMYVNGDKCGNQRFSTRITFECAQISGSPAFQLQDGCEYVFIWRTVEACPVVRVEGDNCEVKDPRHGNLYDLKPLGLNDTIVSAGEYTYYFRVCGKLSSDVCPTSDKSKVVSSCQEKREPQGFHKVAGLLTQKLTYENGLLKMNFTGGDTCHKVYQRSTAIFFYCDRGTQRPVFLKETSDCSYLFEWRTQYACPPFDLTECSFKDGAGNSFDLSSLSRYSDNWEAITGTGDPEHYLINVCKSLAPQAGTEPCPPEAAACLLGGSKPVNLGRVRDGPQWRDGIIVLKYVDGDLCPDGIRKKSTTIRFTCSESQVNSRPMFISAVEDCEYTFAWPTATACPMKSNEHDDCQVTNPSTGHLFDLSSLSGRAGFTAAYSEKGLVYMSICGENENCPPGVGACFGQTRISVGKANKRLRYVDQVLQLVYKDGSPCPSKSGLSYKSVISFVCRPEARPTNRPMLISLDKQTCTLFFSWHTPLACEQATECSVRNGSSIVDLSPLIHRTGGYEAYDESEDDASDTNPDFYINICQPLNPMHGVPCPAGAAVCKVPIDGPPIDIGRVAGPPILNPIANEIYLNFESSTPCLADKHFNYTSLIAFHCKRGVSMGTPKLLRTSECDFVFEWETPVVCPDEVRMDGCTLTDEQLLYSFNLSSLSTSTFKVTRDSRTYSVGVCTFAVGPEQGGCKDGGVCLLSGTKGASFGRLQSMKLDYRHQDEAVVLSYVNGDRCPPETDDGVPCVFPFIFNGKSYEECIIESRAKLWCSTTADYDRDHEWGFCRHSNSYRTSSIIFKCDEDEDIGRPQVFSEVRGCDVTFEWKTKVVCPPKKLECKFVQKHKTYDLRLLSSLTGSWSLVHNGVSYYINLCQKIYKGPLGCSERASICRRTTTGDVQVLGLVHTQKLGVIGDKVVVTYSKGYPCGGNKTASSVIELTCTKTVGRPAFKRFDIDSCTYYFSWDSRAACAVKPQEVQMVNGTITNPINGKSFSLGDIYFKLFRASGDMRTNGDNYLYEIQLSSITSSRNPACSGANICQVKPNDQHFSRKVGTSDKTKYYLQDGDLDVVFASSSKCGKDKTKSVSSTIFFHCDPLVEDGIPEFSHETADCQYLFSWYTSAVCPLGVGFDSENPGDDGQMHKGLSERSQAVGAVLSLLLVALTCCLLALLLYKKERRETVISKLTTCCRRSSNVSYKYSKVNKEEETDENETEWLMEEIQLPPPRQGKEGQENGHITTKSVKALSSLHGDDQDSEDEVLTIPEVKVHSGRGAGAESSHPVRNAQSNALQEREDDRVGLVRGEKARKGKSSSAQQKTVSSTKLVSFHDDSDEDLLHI

B1: hARSA-mutant E424A, P15289 19-507 (enzyme)
chain: RPPNIVLIFADDLGYGDLGCYGHPSSTTPNLDQLAAGGLRFTDFYVPVSLCTPSRAALLTGRLPVRMGMYPGVLVPSSRGGLPLEEVTVAEVLAARGYLTGMAGKWHLGVGPEGAFLPPHQGFHRFLGIPYSHDQGPCQNLTCFPPATPCDGGCDQGLVPIPLLANLSVEAQPPWLPGLEARYMAFAHDLMADAQRQDRPFFLYYASHHTHYPQFSGQSFAERSGRGPFGDSLMELDAAVGTLMTAIGDLGLLEETLVIFTADNGPETMRMSRGGCSGLLRCGKGTTYEGGVREPALAFWPGHIAPGVTHELASSLDLLPTLAALAGAPLPNVTLDGFDLSPLLLGTGKSPRQSLFFYPSYPDEVRGVFAVRTGKYKAHFFTQGSAHSDTTADPACHASSSLTAHAPPLLYDLSKDPGENYNLLGGVAGATPEVLQALKQLQLLKAQLDAAVTFGPSQVARGEDPALQICCHPGCTPRPACCHCPDPHA
In series [1], B1 showed an uptake by the human hepatoma cell line HuH7, compared to wildtype hARSA (internalized enzyme by ELISA) of 20%.

B2: wildtype human arylsulfatase A (enzyme)
chain: RPPNIVLIFADDLGYGDLGCYGHPSSTTPNLDQLAAGGLRFTDFYVPVSLCTPSRAALLTGRLPVRMGMYPGVLVPSSRGGLPLEEVTVAEVLAARGYLTGMAGKWHLGVGPEGAFLPPHQGFHRFLGIPYSHDQGPCQNLTCFPPATPCDGGCDQGLVPIPLLANLSVEAQPPWLPGLEARYMAFAHDLMADAQRQDRPFFLYYASHHTHYPQFSGQSFAERSGRGPFGDSLMELDAAVGTLMTAIGDLGLLEETLVIFTADNGPETMRMSRGGCSGLLRCGKGTTYEGGVREPALAFWPGHIAPGVTHELASSLDLLPTLAALAGAPLPNVTLDGFDLSPLLLGTGKSPRQSLFFYPSYPDEVRGVFAVRTGKYKAHFFTQGSAHSDTTADPACHASSSLTAHEPPLLYDLSKDPGENYNLLGGVAGATPEVLQALKQLQLLKAQLDAAVTFGPSQVARGEDPALQICCHPGCTPRPACCHCPDPHA
notes: Expressed in CHO cells and glycosylated; also called wildtype hARSA; wildtype hASA
As to B2, the binding result in series [2] is “binds”.
